Results as given in patent US20230117827A1, “COMPOSITION COMPRISING A FLUOROPHORE LABELLED UPAR-TARGETING PEPTIDE CONJUGATE” (FLUOGUIDE A/S, priority 2020, published 2023).

How the values were obtained:
Assay type in all cases: physicochemical
[1] = Solubilization of composition 1 judged by absorbance and emission spectra
Procedure: A composition comprising the fluorophore labelled receptor-targeting peptide conjugate ICG-Glu-Glu-AE105 (called composition 1 below) is soluble in DMSO in concentrations up to 20 mg/ml with a peak spectral absorption at 800 nm similar to indocyanine green (ICG) currently used in the clinic for visual assessment of vessels, blood flow and related tissue perfusion, fig. A.
An aqueous formulation of composition 1 of 1.0 mg/ml has been developed according to the present invention, using excipients suitable for pharmaceutical formulation development.
A. Excitation was conducted at 775 nm.
Further Explanation of the Figs. A-D A. Absorbance and emission spectrum of FG001 dissolved in DMSO and PBS at 1.0 mg/ml. Excitation wavelength: 775 nm. Analytical samples for absorbance measurement were further diluted 200-fold and 400-1000-fold for emission spectra. B. Absorbance spectrum of FG001 dissolved in 1) 10 mM sodium phosphate, 45 mg/ml mannitol, pH 7.4, 2) 10 mM sodium phosphate, 45 mg/ml mannitol, 1% Polysorbate 20, pH 7.4 and 3) PBS, 0.2 g/ml HBC. Analytical samples for absorbance measurement were further diluted 200-fold and 400-1000-fold for emission spectra C. […] Excitation wavelength: 775 nm. Analytical samples for absorbance measurement were further diluted 200-fold and 400-1000-fold for emission spectra

[2] = Long term storage stability, water content of lyophilizate by Karl Fisher titration
Procedure: (§1) The long term stability of composition 1 at a concentration of 1.0 mg/ml was evaluated as a lyophilizate in one formulation comprising 10 mM sodium phosphate, 26 mg/ml mannitol, 9.0 mg/ml glycine, 0.025% Polysorbate 20, pH 7.4 Composition 1 was weighed into the formulation buffer and pH was adjusted to 7.4 using sodium hydroxide or hydrochloric acid. The bulk formulation was sterile filtered through suitable sterile filters and filled into 6R vials. The vials were placed with stoppers in a lyophilizer and lyophilized using a standard program. Following lyophilization all vials were capped, visual inspected and stored protected from light at 5° C., 25° C./60% RH or 40° C./75% RH for up to 9 months
(§2) At the selected timepoint, a vial is removed from the stability chamber for visual inspection of the lyophilizate and water content determination. Another vial is reconstituted with water for injection prior to analyzing the corresponding liquid formulation for purity, pH and visual appearance.
The water content of the lyophilizate was determined by Karl Fisher titration according to Ph. Eur. 2.5.32.

[3] = Long term storage stability of lyophilizate, purity by RP-HPLC; conditions: for Purity, main peak following storage at 5° C. / Purity, main peak following storage at 25° C./60% RH / Purity, main peak following storage at 40° C./75% RH: 780 nm
Procedure: as §1, §2
RP-HPLC to detect purity of reconstituted composition 1: Mobile phase A was composed of purified water/acetonitrile (80/20 v/v) with 5 mM ammonium acetate and mobile phase B was composed of purified water/acetonitrile (10/90 v/v) with 5 mM ammonium acetate. A Waters XBridge BEH Peptide, 3.5 μm, 130Å, 4.6×150 mm column was used. Flow rate was set to 1.0 mL/min,detection was at a wavelength of 780 nm, the column running temperature was 45° C. The sample cooler temperature was set at 5° C. and the sample injection load was 10 μg.

[4] = Long term storage stability, visual inspection and pH; conditions: for pH: reconstituted
Procedure: as §1, §2

[5] = storage at 25° C./60% RH, 0 months
[6] = storage at 25° C./60% RH, 1 months
[7] = storage at 25° C./60% RH, 3 months
[8] = storage at 25° C./60% RH, 6 months
[9] = storage at 25° C./60% RH, 9 months
[10] = Example 4 lyophilizate, 0 months
[11] = Example 4 lyophilizate, 1 months
[12] = Example 4 lyophilizate, 3 months
[13] = Example 4 lyophilizate, 6 months
[14] = Example 4 lyophilizate, 9 months

## CC(C)C[C@H](NC(=O)[C@H](Cc1ccc(O)cc1)NC(=O)C(CCCNC(=N)N)NC(=O)C(CO)NC(=O)C(Cc1ccccc1)NC(=O)[C@H](CC1CCCCC1)NC(=O)C(CC(=O)O)NC(=O)C(CCC(=O)O)NC(=O)C(CCC(=O)O)NC(=O)CCCCCN1\C(=C/C=C/C=C/C=C/C2=[N+](CCCCS(=O)(=O)[O-])c3ccc4ccccc4c3C2(C)C)C(C)(C)c2c1ccc1ccccc21)C(=O)N[C@@H](Cc1c[nH]c2ccccc12)C(=O)N[C@@H](CO)C(=O)O (stereo partly drawn) [composition 1, ICG-Glu-Glu-AE105]
[1]; 10 mM sodium phosphate, 45 mg/ml mannitol, pH 7.4
  peak absorption: shifted towards the peak absorption at 800 nm
[1]; DMSO, read-out: soluble in DMSO in concentrations
  solubility: ≤ 20 mg/mL
[1]; in DMSO
  peak spectral absorption: 800 nm
[1]; phosphate buffer saline, 1.0 mg/ml
  spectral absorption in the range from 700 nm to 825 nm: clear double peak
[1]; phosphate buffer saline, 1.0 mg/ml, excitation 775 nm
  emission spectrum: significantly lower fluorescent peak at 800 nm
[1]; tested concentration 1.0 mg/ml
  solubility in phosphate buffer saline: not soluble
[2]; following 9 months storage at 25° C./60% RH
  residual water content: around 2%
[2]; storage at 5° C., 0 months
  Residual water: 1.0%
[2]; storage at 5° C., 1 months
  Residual water: 1.2%
[2]; storage at 5° C., 3 months
  Residual water: 1.8%
[2]; storage at 5° C., 6 months
  Residual water: 1.7%
[2]; storage at 5° C., 9 months
  Residual water: 1.6%
[2]; [5]
  Residual water: 1.0%
[2]; [6]
  Residual water: 1.8%
[2]; [7]
  Residual water: 1.7%
[2]; [8]
  Residual water: 1.7%
[2]; [9]
  Residual water: 1.9%
[3]; Example 4 lyophilizate (mannitol/glycine/0.025% Polysorbate 20), 0 months
  Purity, main peak following storage at 5° C.: 96.6 area %
[3]; [10]
  Purity, main peak following storage at 25° C./60% RH: 96.6 area %
  Purity, main peak following storage at 40° C./75% RH: 96.6 area %
[3]; [11]
  Purity, main peak following storage at 5° C.: 96.2 area %
  Purity, main peak following storage at 25° C./60% RH: 96.2 area %
  Purity, main peak following storage at 40° C./75% RH: 96.0 area %
[3]; [12]
  Purity, main peak following storage at 5° C.: 96.5 area %
  Purity, main peak following storage at 25° C./60% RH: 96.6 area %
  Purity, main peak following storage at 40° C./75% RH: 95.9 area %
[3]; [13]
  Purity, main peak following storage at 5° C.: 96.3 area %
  Purity, main peak following storage at 25° C./60% RH: 95.6 area %
  Purity, main peak following storage at 40° C./75% RH: 93.9 area %
[3]; [14]
  Purity, main peak following storage at 5° C.: 96.2 area %
  Purity, main peak following storage at 25° C./60% RH: 96.2 area %
[3]; selected formulation, storage conditions 5° C. and 25° C./60% RH
  time shown to be stable, judged by the purity determination: up to 9 months
[4]; storage at 5° C., 0 months
  pH: 7.4
[4]; storage at 5° C., 1 months
  pH: 7.3
[4]; storage at 5° C., 3 months
  pH: 7.4
[4]; storage at 5° C., 6 months
  pH: 7.3
[4]; storage at 5° C., 9 months
  pH: 7.4
[4]; [5]
  pH: 7.4
[4]; [6]
  pH: 7.3
[4]; [7]
  pH: 7.4
[4]; [8]
  pH: 7.3
[4]; [9]
  pH: 7.4
[4]; up to 9 months storage
  pH, appearance of the lyophilizate and clarity of reconstituted liquid formulation: remains unchaged
